In patent US20200270318A1:
No end group written: not given here.

B1: PACAP1-27 (peptide)
peptide: HSDGIFTDSYSRYRKQMAVKKYLAAVL-NH2
B2: PACAP6-38 (peptide)
peptide: FTDSYSRYRKQMAVKKYLAAVLGKRYKQRVKNY-NH2

Biological target: human PAC1 receptor with 3 hemagglutinin (HA) tags, expressed in Chinese Hamster Ovary (CHO) cells (human), P41586
Test: cell-based or functional assay

human PAC1 receptor with 3 hemagglutinin (HA) tags, expressed in Chinese Hamster Ovary (CHO) cells (human), P41586, sequence (P41586 21-468): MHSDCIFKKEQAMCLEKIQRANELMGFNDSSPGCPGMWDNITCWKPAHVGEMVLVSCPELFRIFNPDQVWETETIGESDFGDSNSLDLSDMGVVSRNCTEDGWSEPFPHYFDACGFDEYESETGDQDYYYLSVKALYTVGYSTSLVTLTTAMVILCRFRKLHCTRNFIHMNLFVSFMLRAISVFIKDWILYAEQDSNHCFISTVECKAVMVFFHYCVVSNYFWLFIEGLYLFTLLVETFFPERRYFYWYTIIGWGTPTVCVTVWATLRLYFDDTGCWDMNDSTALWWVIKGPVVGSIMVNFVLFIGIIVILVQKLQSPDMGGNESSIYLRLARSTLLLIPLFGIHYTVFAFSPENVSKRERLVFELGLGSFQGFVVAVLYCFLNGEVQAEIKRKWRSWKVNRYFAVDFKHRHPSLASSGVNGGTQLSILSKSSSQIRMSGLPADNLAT

Row | Binder | EMax (%), calcium flux (FLIPR), agonist mode, PAC1-CHO cells | IC50 (nM), antagonist mode (variable concentration) versus 5 nM PACAP1-27, calcium flux (FLIPR), PAC1-CHO cells | IMax (%), antagonist mode (variable concentration) versus 5 nM PACAP1-27; ( )=% inhibition at highest concentration | pA2 (nM), antagonist mode (fixed concentration), Gaddum/Schild EC50 shift of PACAP1-27 curves, calcium flux (FLIPR), PAC1-CHO cells
1 | B1 | 100% | – | – | –
2 | B2 | – | > 333 nM | 78.8% | 201 nM
